These results are taken from publication PMC10242635.

Series [1] deals with T1, FXR-DBD;RXR-DBD (human;human, UniProt Q96RI1-1;P19793 117-217;130-212, |). Briefly: X-ray crystallography.
Series [2] deals with T1, FXR-DBD;RXR-DBD. The series can be described thus: fluorescence polarization. (In general: Polarisation of emitted light reports the rotation of a fluorescent probe.)
Another series has as its target T2, FXR-DBD (human, UniProt Q96RI1-1 117-217).
T2 sequence: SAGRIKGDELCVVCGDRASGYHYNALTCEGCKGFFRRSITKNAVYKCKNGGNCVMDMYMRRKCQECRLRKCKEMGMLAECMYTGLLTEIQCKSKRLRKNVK
Briefly: fluorescence polarization.

T1 sequence (P19793 130-212, one chain of several): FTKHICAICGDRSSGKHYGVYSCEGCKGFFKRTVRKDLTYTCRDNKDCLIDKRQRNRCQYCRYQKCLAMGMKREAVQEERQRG

B1: IR1 (crystal) (dsDNA)
DNA 1: CCGAGGTCAATGACCTCG
DNA 2: CCGAGGTCATTGACCTCG
In the case of B1, in the series with FXR-DBD;RXR-DBD [1], the binding result is listed as “binds”.

B2: IR1 (FPA) (dsDNA)
DNA 1: CCGAGGTCAATGACCTCG
DNA 2: CGAGGTCATTGACCTCGG
As usually defined, the Kd is the constant that tells how readily two partners part at equilibrium. In the case of B2, the Kd was roughly 54 nM with FXR-DBD;RXR-DBD [2] and 95 nM in the series with FXR-DBD.
